Patent US12661396B2, “Selective targeting of the TREML1/MD2 interaction by small peptide or protein and its use for vaccine adjuvants” (Ascendo Biotechnology, Inc., priority 2020, dated 2026)

Tests used:
[1] = test system: THP1/XBlue/MD2/CD14 cells; assay: TNF-α secretion by THP1/XBlue/MD2/CD14 monocytes (ELISA); format: cell-based, human; details: FIG. 5B
Description: (§1) To investigate the effects of anti-TLR4 antibody and anti-MD2 antibody on TREML1 ECD-triggered TLR response, THP1/XBlue/MD2/CD14 cells were pretreated with anti-TLR4 antibody, anti-MD2 antibody, or IgG control for the indicated groups and incubated for 15 minutes at 37° C., 5% CO2. After pretreatments, THP1/XBlue/MD2/CD14 cells were stimulated by TREML1 ECD (10 ug/ml) and seeded at a concentration of 1×10^6 cells/ml (200 ul per well) into wells of a 96-well plate for 18 hr at 37° C., 5% CO2. To determine the NF-κB activation, the supernatants of culture medium were collected and assessed with QUANTI-Blue™ reagent (InvivoGen) according to the manufacturer's instructions.
Cell supernatants and plasma samples were harvested and stored at −80° C. Human TNFα concentrations were detected using TNF-α DuoSet ELISA kit (R&D #DY210) according to manufacturer's instructions. Signals were developed using 3,3′,5,5′-tetramethylbenzidine and the absorbance of 450 nm was detected with a microplate reader.

[2] = target: T1, MD2 (Homo sapiens, UniProt Q9Y6Y9); assay: Solid phase binding assay, TREML1 ECD to immobilized MD2; details: absorbance at 450 nm; TREML1 ECD 2.5 ug/ml to 156 ng/ml; FIG. 2
T1 sequence (Q9Y6Y9 19-160): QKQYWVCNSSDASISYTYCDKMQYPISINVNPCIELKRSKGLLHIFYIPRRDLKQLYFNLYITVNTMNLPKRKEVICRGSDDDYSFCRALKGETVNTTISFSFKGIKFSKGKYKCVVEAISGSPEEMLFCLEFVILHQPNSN
Description: (§2) To identify potential binding partners of TREML1 ECD, we used solid phase binding assay to assess interactions between TREML1 ECD and candidate proteins. Briefly, various candidate proteins and BSA (as a negative control) were coated on a 96-well plate and TREML1 ECD at various concentrations were added to the wells. After binding and washing, an anti-TREML1 antibody conjugated with horse radish peroxidase (HRP) was added to each well. After washing, HRP substrate, TMB (3,3′,5,5′-tetramethylbenzidine), was added. After reaction, absorbance at 450 nm was measured to assess TREML1 binding.
(§3) To investigate the protein-protein interactions. Recombinant TLR4 (5 ug/ml in PBS), MD2 (5 ug/ml in PBS), CD14 (5 ug/ml in PBS), and BSA (negative control) proteins were plated separately on 96-well plates and incubated overnight at 4 degrees Celsius. The blocking buffer (2% BSA in PBS) was added to avoid the nonspecific binding for 2 hr at room temperature. A serial diluted TREML1 ECD (2.5 ug/ml to 156 ng/ml, 2-fold dilutions) solutions were added and allowed to incubate at room temperature for 2 hr. Then, anti-TREML1 antibody (1 ug/ml in PBS) was added for 1 hr. Next, a secondary antibody with HRP labeling, anti-Rat IgG-HRP, was added to the plates and incubated for 30 minutes at room temperature. […] Absorbance at OD450/540 nm was measured with a microplate reader.

[3] = target: TLR4 (Homo sapiens, UniProt O00206); assay: Solid phase binding assay, TREML1 ECD to immobilized TLR4; details: absorbance at 450 nm; TREML1 ECD 2.5 ug/ml to 156 ng/ml; FIG. 2
Chain of TLR4 (O00206 24-839): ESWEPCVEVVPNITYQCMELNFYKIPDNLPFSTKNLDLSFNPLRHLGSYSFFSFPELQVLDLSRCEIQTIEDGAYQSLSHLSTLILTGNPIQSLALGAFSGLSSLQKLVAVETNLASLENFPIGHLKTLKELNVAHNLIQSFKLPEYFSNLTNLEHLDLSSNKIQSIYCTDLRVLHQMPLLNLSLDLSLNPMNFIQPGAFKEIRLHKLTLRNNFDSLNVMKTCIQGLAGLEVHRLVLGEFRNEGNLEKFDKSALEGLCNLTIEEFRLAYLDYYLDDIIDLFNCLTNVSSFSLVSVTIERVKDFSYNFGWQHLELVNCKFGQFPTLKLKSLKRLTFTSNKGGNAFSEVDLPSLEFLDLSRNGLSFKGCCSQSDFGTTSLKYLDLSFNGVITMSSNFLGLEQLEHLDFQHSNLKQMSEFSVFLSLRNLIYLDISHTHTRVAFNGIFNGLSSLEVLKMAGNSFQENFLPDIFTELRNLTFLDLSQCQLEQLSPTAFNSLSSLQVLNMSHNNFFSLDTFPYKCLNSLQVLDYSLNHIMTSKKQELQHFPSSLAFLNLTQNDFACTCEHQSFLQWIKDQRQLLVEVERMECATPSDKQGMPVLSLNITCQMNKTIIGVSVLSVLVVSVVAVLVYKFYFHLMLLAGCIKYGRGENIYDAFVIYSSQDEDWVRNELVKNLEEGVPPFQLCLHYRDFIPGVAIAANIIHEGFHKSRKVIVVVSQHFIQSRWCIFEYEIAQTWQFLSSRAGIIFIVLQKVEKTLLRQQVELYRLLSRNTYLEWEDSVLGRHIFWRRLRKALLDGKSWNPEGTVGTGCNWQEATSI
Description: as §2, §3

[4] = test system: THP1/XBlue/MD2/CD14 cells; assay: TREML1 ECD binding to THP1/XBlue/MD2/CD14 cells and antibody competition (flow cytometry); format: cell-based; details: TREML1 ECD 10 ug/ml, 1 hour; AF647-anti-human TREML1 staining; FIG. 4
Text: (§4) In addition to the solid phase binding assays, the TREML1 ECD binding was further evaluated using THP1/XBlue/MD2/CD14 cells (InvivoGen, San Diego, USA), which express MD2 and CD14. These cells (InvivoGen, San Diego, USA) are derived from the human monocytic THP1 cell line and express an NF-κB- and AP-1-inducible secreted embryonic alkaline phosphatase (SEAP) reporter gene.
To investigate the effects of anti-TLR4 antibody (HTA125, BioLegend #312814) and anti-MD2 antibody (18H10, ThermoFisher #MA5-33351) on TREML1 ECD binding to THP1/XBlue/MD2/CD14 cells, cells were pretreated with anti-MD2 antibody, anti-TLR4 antibody, IgG control, or a combination for 15 min at 37° C. with 5% CO2. After antibodies treatments, cells were treated with TREML1 ECD (10 ug/ml) and incubated for 1 hours. Cells were washed with PBS containing 1% FBS and stained with AF647-anti-human TREML1 antibody, followed by flow cytometric analysis.
The cells were resuspended in PBS containing 1% FBS at a density of 2×10^6 cells/ml and non-specific bindings of Abs were blocked using Human Fc Block (BD Biosciences #564220) at room temperature for 10 min. AF647-anti-human TREML1 (clone 268420) (R&D #FAB2394R) antibody was used as a detection antibody of TREML1 binding to cell surface. […] Binding analysis was performed on a CytoFLEX Flow Cytometer (Beckman Coulter) and the collected data were analyzed using Kazula software.

[5] = test system: NF-κB; assay: NF-κB activation in THP1/XBlue/MD2/CD14 cells (SEAP reporter, QUANTI-Blue); format: cell-based, human; details: FIG. 5A
Text: as §4, §1

[6] = test system: Human peripheral blood mononuclear cells (PBMCs); assay: TLR agonist-induced TNF-α secretion in human PBMCs with or without TREML1 ECD; format: cell-based; details: human PBMCs pretreated with hTREML1 10, 5, 1 ug/ml for 30 min
Description: Human peripheral blood samples from healthy volunteer donors were collected by venipuncture bled into ACD vacutainer tubes. Human peripheral blood mononuclear cells (PBMCs), which were separated from whole blood using Ficoll-Paque Plus (GE17-1440-03) according to the manufacturer's instructions. Human peripheral blood mononuclear cells (PBMCs) were pretreated with or without […]1 (10 ug/ml, 5 ug/ml and 1 ug/ml) and incubated for 30 min at 37° C. with 5% CO2. After treatments, cells were stimulated with TLR agonist, including R848 (InvivoGen #tlrl-r848) and ODN2395 (InvivoGen #tlrl-2395), and incubated at 37° C. with 5% CO2 for 18 hr. Supernatants of cell culture medium were collected for TNF-α measurements. Cell supernatants and plasma samples were harvested and stored at -80° C. Human TNFα concentrations were detected using TNF-α DuoSet ELISA kit (R&D #DY210) according to manufacturer's instructions. Signals were developed using 3,3',5,5'-tetramethylbenzidine and the absorbance of 450 nm was detected with a microplate reader.

[7] = target: T2, CD14 (Homo sapiens, UniProt P08571); assay: Solid phase binding assay, TREML1 ECD to immobilized CD14; details: absorbance at 450 nm; FIG. 2
T2 sequence (P08571 20-345): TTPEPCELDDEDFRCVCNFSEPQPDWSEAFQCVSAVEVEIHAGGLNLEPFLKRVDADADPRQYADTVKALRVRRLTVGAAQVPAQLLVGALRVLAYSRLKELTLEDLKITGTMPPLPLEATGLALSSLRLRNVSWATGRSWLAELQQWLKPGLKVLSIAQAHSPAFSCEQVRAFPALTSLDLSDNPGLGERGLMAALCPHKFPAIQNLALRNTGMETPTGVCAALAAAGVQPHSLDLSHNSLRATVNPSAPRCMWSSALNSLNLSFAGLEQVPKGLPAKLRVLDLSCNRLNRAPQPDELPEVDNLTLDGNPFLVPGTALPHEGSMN
Description: as §2, §3

B1: TREML1 ECD: human TREML1 extracellular domain, SEQ ID NO:1; recombinant, E. coli, polyhistidine tag at the N-terminus (protein)
chain: QGIVGSLPEVLQAPVGSSILVQCHYRLQDVKAQKVWCRFLPEGCQPLVSSAVDRRAPAGRRTFLTDLGGGLLQVEMVTLQEEDAGEYGCMVDGARGPQILHRVSLNILPPEEEEETHKIGSLAENAFSDPAGSANPLEPSQDEKSIP
modifications: N-terminal polyhistidine tag; homo sapiens
notes: recombinant, E. coli, polyhistidine tag at the N-terminus
For B1, the “TNF-α secretion by THP1/XBlue/MD2/CD14 monocytes” value [1] was “induces THP1/XBlue/MD2/CD14 monocyte activation”, the “TREML1 ECD binding to immobilized MD2” value [2] was “binds MD2 and TLR4 in a concentration-dependent manner” and the “TREML1 ECD binding to immobilized TLR4” value [3] was “binds MD2 and TLR4 in a concentration-dependent manner”. The “binding to THP1/XBlue/MD2/CD14 cells” value [4] was “can bind to the THP1/XBlue/MD2/CD14 cells”, the “NF-κB activation in THP1/XBlue/MD2/CD14 monocytes” value [5] was “induced activation of NF-κB” and the “effect on R848 (TLR7/8)-induced TNF-α secretion” value ([6]; FIG. 7A) was “enhanced in the presence of TREML1 ECD”. For the same molecule, the “effect on ODN 2395 (TLR9)-induced TNF-α secretion” value ([6]; FIG. 7B) was “enhanced in the presence of TREML1 ECD in a dose-dependent manner” and the “TREML1 ECD binding to immobilized CD14” value [7] was “does not bind to CD14”.
